Results published in article PMC12560131.

Columns and labels:
[1] = target: Adalimumab; assay: SPR
[2] = target: Adalimumab–pM440 complex (Mycoplasma genitalium) (UniProt P47523); assay: SPR; single-cycle kinetic titration of TNFα on Adalimumab or on the Adalimumab-pM440 complex
[3] = target: Adalimumab–pM440 complex (Mycoplasma genitalium) (UniProt P47523); assay: SPR

protein M440 (from UniProt P47523 1-440) (domain or fragment)
Kd [1]: < 0.15 nM

TNFα (from UniProt P01375 1-233) (ligand)
Kd [2]: 2.94 nM | fold decrease in affinity against Adalimumab without pM440 [3]: 3 fold | koff [3]: 0.00046 s⁻¹ | kon [3]: 160000 M⁻¹ s⁻¹
